Here are results for 23 sequences from the DeepSol protein solubility set.

A short description of the data set: soluble on expression in E. coli; label from the status in PepcDB or PDB records.
Take “MSEKDQSVNNTEEDFNVETEDNQNDTNIENSVSNTDNSEANASDSENNSEESIKDEESESQDTKIKELEKLANDNEEKYLRLYAEFENYKRRIQKENQINATYKAQGVLTDILPSIDNIERALQIEGDDESFKSLQKGVQMVHESLLRALKDNGLEEILAEGKEFDPNLHQAVVQDDNPDFKSGEVTQELQKGYKLKDRVLRPSMVKVNQ”: the “soluble on expression in E. coli” value was “soluble”.
The value for “MSLADIYAFPTGESNDGRPVRPQGVPDEVWAAVESVSTMKRIHDVRYREIPVPSTLADYGIGVEFEAGERALGDAFSAGLGSDAEPRIATGWIMMLYAHELRIDWDSNWRCVAFARLPLETAENDSLTPGMYWDDMCDYFDGIEPDSVSGTVTVTQNTAFGSMAGSTSAGCEIRVSWTPLDGTGPDGTMDAGAQVRSWAAFIRSTIRFEEDDASEGHHHHHH” was “soluble”; that for “MSKNDTEKILLDDLLFLQRAPYYESFSVYKIDSNKYIENENDSHIDRWLSMAVSGDDKTEAPTEFVIEPGGCLISLVVDRRLISLY” was “not soluble”; that for “MPIHSLSLAGFRSIRKLTLELDALNVVVGANGCGKSNLYKSIQLLHAAAEGGLSAALAAEGGAQKAMWAGGTRRGDKARVPKRMILSARLDDYDYELQLGYPEPSCSLFALDPLVKEESLWLAGHGRRPSTLLLERRNQAAFLCGVEGERNSYPASLRAEESLFGQLAEPHRYPELSQVRETLRNWRFYHEFAIWPGSPLRAPQVGIRSPVLAHDGANLAAAFQTIVEIGDHELLHSVLTDAFPDSRFLVDAQQGRFQMLMRRDGLLRPLEAAELSDGTLRFLCLAVALLSPRPPAFMALNEPENSLHPALLPALARLIAEASRHSQLWVTSHSPELAERIRRHRPLKTFQLSLRDGETVLQDDLEHHHHHH” was “not soluble”.
The value for “MAHHHHHHMNPSLSDSKFEKAMSKLQLLEDSRTILHRMLQHAHFSFSNAQRQMDRTGLLLAWEAVPTAAGAVKPQYCIVREMKDGGNGGDAGVGAAAISDDNVDCAVWKLVNCGDSAGEDPAKWFAVAPSEALRECQQHFRGVVNACVKVIQAQEEAITAAATVPVT” was “not soluble”; that for “MTSNFREYLFAPDHPRLAELRELDAYAYRTVARRPGTFTGDLVAGWTPLYKNEFRGVTEDGTLREDVHCLEPARAGEAAPVPEMVAAAADLLAGLDDESRERIRYRVDAPEWQTWANPEFMQFDTGIRLEFQSEDVRRKALRLMASSLSPQGYELARNMMLINGFLGEVVGLPGILNEFSYNMAIYGTPHETRPWGWQVFGHHLAVNCFVVDGRMVISPLFLGAEPNEIDEGEHAGVTSFGTRIELGLALMAELTPEQRCAATVYEQMVDPAMPPGRVHPGDERHLAGAFQDNRQIPFEGVRVADLSCRAQELVLEIVEQFVALLPDGPRAARMREVRKMLSQTWFSWIGGHRPGDVFYYRVQSPVIIAELDHHCGVFLDYDTPKPFHIHTVVRTPHGNDYGRAYLRQWEQGHRLEHHHHHH” was “soluble”; that for “MNNGYSPTSSNQQNVSVEHDIIMRGRRIIDITGVKQVESFDSEEFLLETVMGFLTIRGQNLQMKNLDVEKGIVSIKGKVNEMLYIDENQGEKTKGFFSKLFKLEHHHHHH” was “not soluble”.
The value for “SGALWDVPSPAATQKATLSEGVYRIMQRGLFGKTQVGVGIHMEGVFHTMWHVTRGSVICHETGRLEPSWADVRNDMISYGGGWRLGDKWDKEEDVQVLAIEPGKNPKHVQTKPGLFKTLTGEIGAVTLDFKPGTSGSPIINKKGKVIGLYGNGVVTKSGDYVSAITQAERIGEGPDYEVDEDIFRKKRLTIMDLHPGAGKTKRILPSIVREALKRRLRTLILAPTRVVAAEMEEALRGLPIRYQTPAVKSDHTGREIVDLMCHATFTTRLLSSTRVPNYNLIVMDEAHFTDPCSVAARGYISTRVEMGEAAAIFMTATPPGSTDPFPQSNSPIEDIEREIPERSWNTGFDWITDYQGKTVWFVPSIKAGNDIANCLRKSGKRVIQLSRKTFDTEYPKTKLTDWDFVVTTDISEMGANFRAGRVIDPRRCLKPVILTDGPERVILAGPIPVTPASAAQRRGRIGRNPAQEDDQYVFSGDPLKNDEDHAHWTEAKMLLDNIYTPEGIIPTLFGPEREKTQAIDGEFRLRGEQRKTFVELMRRGDLPVWLSYKVASAGISYKDREWCFTGERNNQILEENMEVEIWTREGEKKKLRPKWLDARVYADPMALKDFKEFASGRK” was “soluble”; that for “SDSTAGTDAVAVGGTFQFHSPDGKMEIFYDEADRQQLPDIGGDSLMEEGTQINLSDFENQVVILNAWGQWCAPCRSESDDLQIIHEELQAAGNGDTPGGTVLGINVRDYSRDIAQDFVTDNGLDYPSIYDPPFMTAASLGGVPASVIPTTIVLDKQHRPAAVFLREVTSKDVLDVALPLVDEA” was “soluble”.
As for “MSLTARIDQLLLERLKSAGVEPAPAADDGEFLRRAYLDLSGTIPPVAITRDYLADSSPAKRRQLIERLLASPAFASHLASTWREIILKPTDDFQQLQNQFALQAWLREQFSENARYDRIVEQFITASSEQDGPVYFYDALDLKPEQLAAETSRIFLGLHIQCAECHDHPFDDWKQRDFWGYAAFFARVAKRDSAMGRISEGHHHHHH”, the “soluble on expression in E. coli” value is “soluble”.
As for “MNIIDFNKPVKRSFRGNTAPAPPLEKVLTVILKTDVPVLMGICSDGLRSNSAILGGEFQAEYFSGSVLSGGGNVLVELSSELAFLETRFTLITQLGELINVECKGVLLMDEEGQQELQSGVWPISEGHYQCTCTPRFQVSLGPNDWLEKSAFIGKIDYIQRNETLISFYRMKL”, the “soluble on expression in E. coli” value is recorded as “not soluble”.
The value for “MISAPGIGSGLDVSGIISKLMEIEQQPLTQLNTKEAKQQAQLSAFGSLKSVLSTFQDSVKALAKPALFNGYKATLADTTAATVSTSSSASAGTHDIEVQSLAQAQKIKSEAFATTDTVIGSGTLTIEFGTYNEDGTFTANAEKTAKTITIDPAKSTLADIRSAINEANAGVTASIVNDGSGNRLVISSKDSGLANALKISVNDTDGNHTDNAGLSKLAFDASTGGVSNMTETVAARNAVMVIDGIPVTKSSNTINDALEGVTFNLLKANPGTTTTLTVEKDKSNVEAAVNAFVKAYNDLEKTIGNLSRYDAANKQASVLTGDSTMRMIQNRMRAMLGGNQSAAGGINSLSELGISFQKDGTLALDNNKLSAVLNNPDKNIAAFFTTQGGDDTTSVEGFASRLSELIDGMTRSDGLISSRMDGINSTIKGIGKQREALEFRLESVEKRLRAQFTALDTMIASMNQTSNYLQQQLANLPKIGE” was “not soluble”; that for “IIHREYPRHHVLHRFTPASKPNGKKILITHGWMSRAAYMVRLIRLLHKEGYEVYAIDFPAHGEAKGIQLPWTDAIAIIKETINQFGPFYGLVGHSFGGSMILNTLNLAGQLPEWQLNHKPERAILIASPTQMRTPVNKIARRFKLSGQAYLQLRQLIRQQASVDPERIRLSHFISQAPDTYFLCIHGELDATINPKESINFCKYYKNARLSLLPDADHVSVLMDERVEQIALDFLNR” was “not soluble”; that for “MAHHHHHHMGTLEAQTQGPGSMIGITQAEAVLTIELQRPERRNALNSQLVEELTQAIRKAGDGSARAIVLTGQGTAFCAGADLSGDAFAADYPDRLIELHKAMDASPMPVVGAINGPAIGAGLQLAMQCDLRVVAPDAFFQFPTSKYGLALDNWSIRRLSSLVGHGRARAMLLSAEKLTAEIALHTGMANRIGTLADAQAWAAEIARLAPLAIQHAKRVLNDDGAIEEAWPAHKELFDKAWGSQDVIEAQVARMEKRPPKFQGA” was “soluble”.
As for “MGSDKIHHHHHHMKNIHSIEFYTGSKEELLPDFEKDFPYIASRAELDKYIGGYVPWHWHRTVELFYMESGSIEYDTPGGKILFPAGSGGMINPNVLHMTKAISQREKNIQLLHIFDVSLLAGEQGSRIEQKYIAPVITAPQIEVIPLFPGNAEEERILKLLAASFRLSSDEFGYEIKLREALTEIWLMLFELSCSMREKKGEHNKSNDKIKLMMIYIHEHYREKISILELAAAAYLSERECYRVFHDCLHMTPVEYITTYRLQIACQMLAKGQEPITVISHECGLGSSSYFGKVFREYAYCSPTEYRKKWQNSDM”, the “soluble on expression in E. coli” value is listed as “not soluble”.
“MKVAAKKLATSRMRKDRAAAASPSSDIENSENPSSLASHSSSSGRMTPSKNTRSRKGVSVKDVSNHKITEFFQVRRSNRKTSKQISDEAKHALRDTVLKGTNERLLEVYKDVVKGRGIRTKVNFEKGDFVVEYRGVMMEYSEAKVIEEQYSNDEEIGSYMYFFEHNNKKWCIDATKESPWKGRLINHSVLRPNLKTKVVEIDGSHHLILVARRQIAQGEELLYDYGDRSAETIAKNPWLVNT”: the “soluble on expression in E. coli” value was “not soluble”.
As to “MSGVRAVRISIESACEKQVHGVGLDGTETYLPPLSMSQNLARLAQRIDFSQGSGSEEGEAAGTEGDAQDWPGAGSSADQDDEEGVVKFQPSLWPWDSVRNNLRSALTEMCVLYDVLSIVRDKKFMTLDPVSQDALPPKQVFVDFNLEHHHHHH”, the “soluble on expression in E. coli” value was “not soluble”.
“MGSDKIHHHHHHMRNTDTYSYLVRDGHDLVHDPVPGILGPRPIGWISTCDSSGRPRLQTYSFFGIFNYVPPIVGFASVGGTESVNNAELTGEFAYNLATRPLAGCVNQTIVPALTEMDEFERSGLTKIRSIAIAAPRVAESPVSLECRVTSIQQLNGLDSEALNTWLVLGEVVAVHINRELLCDGFYDTVAAQPILRGGGACDYFEVLQAGKFRMTHPR”: the “soluble on expression in E. coli” value is listed as “not soluble”.
Turning to “MKKLQIAVGIIRNENNEIFITRRAADAHMANKLEFPGGKIEMGETPEQAVVRELQEEVGITPQHFSLFEKLEYEFPDRHITLWFWLVERWEGEPWGKEGQPGEWMSLVGLNADDFPPANEPVIAKLKRL”, the “soluble on expression in E. coli” value is given as “soluble”.
In the case of “MVLVELFGFGPHLMVDGYEANPDRLRDAELIRRVLNELPEEMEMTKVLPPFVYSYGPGGEDGVTGVVIIAESHIAIHTFPKKRFLSVDIFSCKAFDMAKALKKLAEVFEIRRYETYMINRGKEFPKDPELARQIVLGEREYLEARVG”, the “soluble on expression in E. coli” value is recorded as “soluble”.
As to “SLKAIKNGTILTGTGETIKQGTLLIQDGKVLEVGQRVDTPANAKLIDATGKYVTPGLIDVHTHIGVFSEGLGRTGHDFNETTAAATPYIRAIDGIYPFDQGFEDARQSGVTTVQIMPGSANVIGGEMVTVKTAGTVVDEMIVRAPSGMKAAFGENPKNVHGGKGKLPATRMGVAALFRQQLYQAQDYLKRFEKGELEKRDLGMEQLAKVLRKEIPLRVHAHRADDIATVLRMVDEFDLEATIEHCTEGHLIADHIAKYNVKVSVGPTMTSRTKQELVNKGWHTLIELEKHGIPFSITTDHPVVTINHLVTSAIQAVKAGLSEQSAFQAITLRAAEHIGVEQQVGSLEKGKDGDFVIWSDHPFTATAQVEATYINGKCVTGSHC”, the “soluble on expression in E. coli” value was “not soluble”.
The value for “MGSDKIHHHHHHAVDAKLLEMLRANGSINQAQYNELQGDLAKETKEKADQKAQSERMSSFEQKVAWAAKTQIKGDVRLRYEDVNVDDPNSSSGNQDRQRVRARVGFYSEINPQVDAGVRIATGSSADRRSTNQSFDNYFDKKSLWVDLAYLDWHPTAVPNLHLIGGKMQQPWVSMGDIIWDSDINPEGVAATYKADLGGAEVFASAGQYTLKDNVDGDGVQYKHDAQVYHGQLGAKFAPADVLKLTVGASIYGYDNDKEAAILQSFGNTTNEFNLVEGFGQIDFTGLAIPLSAYGQYVKNTDSTDGEDQAWLAGLKTKMGAWSLDYNYRDVQRNAVVSLFTDSDFGNGYTGSRGHKFKVGYEIDKNFSLGAAYLMAKTDLSQLPNSNADVDTLQVDLEAKF” was “not soluble”.
Consider “MAGDPMNSRMKIKKAYEYMKSFHQHDTTGHDIAHVERVYNNACYIAKRENITDTLVIELSSLLHDTVDSKLTDEILAYDQLKQFLSTLDLSSEISQQVLYIIKHMSYRAGKNNHVKLSIDGEIVRDADRLDAIGAIGIARTFQFSGHFGEPMWTETKLSNEELHTSLVEELDNSAIKHFYEKLFKLKDLMHTPTAKKLAEERHQFMIQYLKQFMSEWNFNKELEHHHHHH”, for which the “soluble on expression in E. coli” value is listed as “soluble”.
